Assay results taken from paper PMC4227788, “Architecture and ssDNA interaction of the Timeless-Tipin-RPA complex” (Nucleic Acids Research, 2014).

Columns and labels:
[1] = biological target: T1, Tim-Tipin complex (mouse, UniProt Q9R1X4;Q91WA1 1-1134;1-278); experiment: fluorescence anisotropy; Hill n = 2.2 ± 0.1; 30 C; 20 mM Hepes pH 7.5, 125 mM NaCl, 2 mM DTT, 0.01 mM zinc acetate (Buffer A); EMSA 15 min RT + 15 min 4 C; FA 15 min 30 C, 10 nM DNA; conditions: protein: recombinant; tags: His (Tim) and His-GST (Tipin), cleaved with 3C; copies: 1;1; label: 5'-FAM
T1 sequence 1: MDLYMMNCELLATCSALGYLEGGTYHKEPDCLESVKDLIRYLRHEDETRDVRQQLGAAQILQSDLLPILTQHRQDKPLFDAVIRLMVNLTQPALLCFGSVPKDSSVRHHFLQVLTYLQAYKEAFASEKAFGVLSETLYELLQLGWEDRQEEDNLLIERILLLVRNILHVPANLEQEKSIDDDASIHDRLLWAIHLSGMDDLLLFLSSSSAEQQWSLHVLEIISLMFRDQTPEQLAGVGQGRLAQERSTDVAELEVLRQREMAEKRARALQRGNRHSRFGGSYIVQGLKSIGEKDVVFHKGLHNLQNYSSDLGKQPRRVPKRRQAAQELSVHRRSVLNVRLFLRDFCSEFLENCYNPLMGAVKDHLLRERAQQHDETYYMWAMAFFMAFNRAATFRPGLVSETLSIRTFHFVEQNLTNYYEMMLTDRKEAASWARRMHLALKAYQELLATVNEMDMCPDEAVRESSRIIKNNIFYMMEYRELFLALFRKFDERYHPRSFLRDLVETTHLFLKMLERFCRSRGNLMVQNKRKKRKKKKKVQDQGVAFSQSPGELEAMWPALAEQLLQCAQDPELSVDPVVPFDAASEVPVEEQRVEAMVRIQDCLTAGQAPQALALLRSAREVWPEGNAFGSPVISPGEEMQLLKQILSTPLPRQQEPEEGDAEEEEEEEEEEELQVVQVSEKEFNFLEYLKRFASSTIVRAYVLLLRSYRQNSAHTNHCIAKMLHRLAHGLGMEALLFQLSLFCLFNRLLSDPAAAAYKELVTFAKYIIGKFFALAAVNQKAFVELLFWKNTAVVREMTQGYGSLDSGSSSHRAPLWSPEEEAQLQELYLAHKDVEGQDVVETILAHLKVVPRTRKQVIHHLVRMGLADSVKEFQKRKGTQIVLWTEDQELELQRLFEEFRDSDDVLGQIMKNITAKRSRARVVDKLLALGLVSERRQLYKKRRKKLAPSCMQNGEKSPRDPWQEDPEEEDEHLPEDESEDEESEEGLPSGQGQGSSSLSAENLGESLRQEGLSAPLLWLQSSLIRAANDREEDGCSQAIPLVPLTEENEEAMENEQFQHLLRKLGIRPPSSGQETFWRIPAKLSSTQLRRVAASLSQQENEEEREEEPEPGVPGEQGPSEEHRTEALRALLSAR
T1 sequence 2: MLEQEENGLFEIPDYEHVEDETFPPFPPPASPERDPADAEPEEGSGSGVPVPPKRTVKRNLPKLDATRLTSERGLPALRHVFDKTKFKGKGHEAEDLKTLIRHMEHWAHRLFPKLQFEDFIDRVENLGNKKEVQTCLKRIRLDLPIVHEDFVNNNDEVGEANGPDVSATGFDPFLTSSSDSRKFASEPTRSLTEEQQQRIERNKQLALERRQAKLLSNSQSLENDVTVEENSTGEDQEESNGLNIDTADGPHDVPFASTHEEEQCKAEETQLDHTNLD

[2] = biological target: T2, RPA70/32/14 (RPA70ABC/32D-WH/14) (mouse, UniProt Q8VEE4;Q99KL9;Q9CQ71 190-623;43-270;1-121); experiment: EMSA; 1 RPA with excess DNA, up to 4 RPA at substoichiometric DNA; 20 mM Hepes pH 7.5, 125 mM NaCl, 2 mM DTT, 0.01 mM zinc acetate (Buffer A); EMSA 15 min RT + 15 min 4 C; FA 15 min 30 C, 10 nM DNA; conditions: protein: recombinant; tags: His; copies: 1;1;1; label: 5'-FAM
T2 sequence (Q8VEE4 190-623, chain 1 of 3): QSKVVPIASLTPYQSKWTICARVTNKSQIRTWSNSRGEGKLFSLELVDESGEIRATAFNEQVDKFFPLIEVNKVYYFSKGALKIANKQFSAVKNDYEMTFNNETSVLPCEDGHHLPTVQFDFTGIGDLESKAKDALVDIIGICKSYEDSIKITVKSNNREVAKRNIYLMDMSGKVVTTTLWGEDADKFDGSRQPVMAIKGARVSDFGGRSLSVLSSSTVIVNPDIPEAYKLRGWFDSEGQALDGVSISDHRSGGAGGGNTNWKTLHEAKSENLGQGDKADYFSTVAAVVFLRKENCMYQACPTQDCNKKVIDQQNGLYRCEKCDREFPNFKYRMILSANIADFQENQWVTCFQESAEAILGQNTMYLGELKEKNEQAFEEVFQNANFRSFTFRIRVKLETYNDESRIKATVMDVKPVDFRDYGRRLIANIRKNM
T2 sequence (chain, as listed by the source, chain 2 of 3): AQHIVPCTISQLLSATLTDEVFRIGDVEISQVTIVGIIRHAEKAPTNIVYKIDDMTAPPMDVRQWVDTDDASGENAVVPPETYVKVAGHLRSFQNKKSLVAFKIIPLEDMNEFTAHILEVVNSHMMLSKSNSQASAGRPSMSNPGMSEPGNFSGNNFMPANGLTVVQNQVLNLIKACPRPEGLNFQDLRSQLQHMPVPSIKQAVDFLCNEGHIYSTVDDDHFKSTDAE
T2 sequence (Q9CQ71 whole entry, chain 3 of 3): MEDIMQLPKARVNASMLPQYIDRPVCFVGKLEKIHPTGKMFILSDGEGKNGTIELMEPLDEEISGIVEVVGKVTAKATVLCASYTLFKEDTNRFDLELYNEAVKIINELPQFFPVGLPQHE

[3] = biological target: T3, Tim-Tipin complex;RPA70/32/14 (RPA70ABC/32D-WH/14) (mouse;mouse, UniProt Q9R1X4;Q91WA1;Q8VEE4;Q99KL9;Q9CQ71 1-1134;1-278;190-623;43-270;1-121, |); experiment: EMSA; excess DNA; partial dissociation; 20 mM Hepes pH 7.5, 125 mM NaCl, 2 mM DTT, 0.01 mM zinc acetate (Buffer A); EMSA 15 min RT + 15 min 4 C; FA 15 min 30 C, 10 nM DNA; conditions: protein: recombinant;recombinant; tags: His (Tim) and His-GST (Tipin), cleaved with 3C;His; copies: 1;1;1;1;1; label: 5'-FAM
T3 sequence (Q8VEE4 190-623, chain 3 of 3): as the sequence (Q8VEE4 190-623, chain 1 of 3) above
T3 sequence (chain, as listed by the source |, chain 4 of 3): as the sequence (chain, as listed by the source, chain 2 of 3) above
T3 sequence (Q9CQ71 whole entry, chain 5 of 3): as the sequence (Q9CQ71 whole entry, chain 3 of 3) above

[4] = biological target: T3, Tim-Tipin complex;RPA70/32/14 …; experiment: SEC; excess DNA; intact complex, 260/280 = 1.20 ± 0.04; 20 mM Hepes pH 7.5, 125 mM NaCl, 2 mM DTT, 0.01 mM zinc acetate (Buffer A); EMSA 15 min RT + 15 min 4 C; FA 15 min 30 C, 10 nM DNA; conditions: protein: recombinant;recombinant; tags: His (Tim) and His-GST (Tipin), cleaved with 3C;His; copies: 1;1;1;1;1
[5] = biological target: T2, RPA70/32/14 (RPA70ABC/32D-WH/14); experiment: SEC; excess DNA 260/280 = 1.57 ± 0.05; substoichiometric 1.32 ± 0.03; 20 mM Hepes pH 7.5, 125 mM NaCl, 2 mM DTT, 0.01 mM zinc acetate (Buffer A); EMSA 15 min RT + 15 min 4 C; FA 15 min 30 C, 10 nM DNA; conditions: protein: recombinant; tags: His; copies: 1;1;1
[6] = biological target: T1, Tim-Tipin complex; experiment: SEC; excess DNA; partial binding, 260/280 = 0.98 ± 0.14; 20 mM Hepes pH 7.5, 125 mM NaCl, 2 mM DTT, 0.01 mM zinc acetate (Buffer A); EMSA 15 min RT + 15 min 4 C; FA 15 min 30 C, 10 nM DNA; conditions: protein: recombinant; tags: His (Tim) and His-GST (Tipin), cleaved with 3C; copies: 1;1
[7] = biological target: T3, Tim-Tipin complex;RPA70/32/14 …; experiment: SEC; excess DNA; intact complex, 260/280 = 1.11 ± 0.04; 20 mM Hepes pH 7.5, 125 mM NaCl, 2 mM DTT, 0.01 mM zinc acetate (Buffer A); EMSA 15 min RT + 15 min 4 C; FA 15 min 30 C, 10 nM DNA; conditions: protein: recombinant;recombinant; tags: His (Tim) and His-GST (Tipin), cleaved with 3C;His; copies: 1;1;1;1;1
[8] = biological target: T2, RPA70/32/14 (RPA70ABC/32D-WH/14); experiment: SEC; excess DNA 260/280 = 1.46 ± 0.01; substoichiometric 1.28 ± 0.05; 20 mM Hepes pH 7.5, 125 mM NaCl, 2 mM DTT, 0.01 mM zinc acetate (Buffer A); EMSA 15 min RT + 15 min 4 C; FA 15 min 30 C, 10 nM DNA; conditions: protein: recombinant; tags: His; copies: 1;1;1
[9] = biological target: T1, Tim-Tipin complex; experiment: EMSA; 16 uM protein, 4-64 uM DNA; 20 mM Hepes pH 7.5, 125 mM NaCl, 2 mM DTT, 0.01 mM zinc acetate (Buffer A); EMSA 15 min RT + 15 min 4 C; FA 15 min 30 C, 10 nM DNA; conditions: protein: recombinant; tags: His (Tim) and His-GST (Tipin), cleaved with 3C; copies: 1;1; label: 5'-FAM
[10] = biological target: T2, RPA70/32/14 (RPA70ABC/32D-WH/14); experiment: EMSA; 1 RPA per DNA; 20 mM Hepes pH 7.5, 125 mM NaCl, 2 mM DTT, 0.01 mM zinc acetate (Buffer A); EMSA 15 min RT + 15 min 4 C; FA 15 min 30 C, 10 nM DNA; conditions: protein: recombinant; tags: His; copies: 1;1;1; label: 5'-FAM
[11] = biological target: T2, RPA70/32/14 (RPA70ABC/32D-WH/14); experiment: SEC; DNA-bound RPA released from Tim-Tipin-RPA mixture, 260/280 = 1.27 ± 0.05 and 1.22 ± 0.04; 20 mM Hepes pH 7.5, 125 mM NaCl, 2 mM DTT, 0.01 mM zinc acetate (Buffer A); EMSA 15 min RT + 15 min 4 C; FA 15 min 30 C, 10 nM DNA; conditions: protein: recombinant; tags: His; copies: 1;1;1
[12] = biological target: T1, Tim-Tipin complex; experiment: SEC; 260/280 = 0.54, excess or substoichiometric DNA; 20 mM Hepes pH 7.5, 125 mM NaCl, 2 mM DTT, 0.01 mM zinc acetate (Buffer A); EMSA 15 min RT + 15 min 4 C; FA 15 min 30 C, 10 nM DNA; conditions: protein: recombinant; tags: His (Tim) and His-GST (Tipin), cleaved with 3C; copies: 1;1
[13] = biological target: T4, Tim interacting protein (Tipin, residues 1-278) (mouse, UniProt Q91WA1 1-278); experiment: SEC; Tim and Tipin co-expressed in E. coli and co-purified (Ni-NTA, Q-sepharose, SEC on Superdex 200 16/60; 20 mM Hepes pH 7.0, 125 mM NaCl, 2 mM DTT); single peak; conditions: partners not purified
T4 construct: The Tipin chain of m1, written alone for the pair Tim with Tipin; also called His-GST-Tipin; source: E. coli BL21 (DE3) gold with pRARE, co-expressed with Tim, co-purified
T4 sequence (looked up): T1 sequence 2

B1: 60 nt FAM ssDNA (ssDNA)
DNA: ACGCTGCCGAATTCTACCAGTGCCTTGCTAGGACATCTTTGCCCACCTGCAGGTTCACCC
Which Kd [1] does the source give for B1 here?
The Kd was 290 ± 10 nM.

Does B1 bind [2]?
Result: binds

Does B1 bind [3]?
Result: binds

B2: 60 nt ssDNA (SEC) (ssDNA)
DNA: CAGACCGCCACCGACTGCTTAGATATTTAAGTTTTCTAATTTTTCATTGAAAGCATTAAG
Does B2 bind [4]?
Result: binds

Does B2 bind [5]?
Result: binds

Does B2 bind [6]?
Result: binds

Does CGGGATCCCAGCCAGCGATGTCTCAAGCTGC (ssDNA) [31 nt ssDNA (SEC)] bind [7]?
Result: binds

Does CGGGATCCCAGCCAGCGATGTCTCAAGCTGC (ssDNA) [31 nt ssDNA (SEC)] bind [8]?
Result: binds

Does GACGGCATCCCTAA (ssDNA) [14 nt FAM ssDNA] bind [9]?
Result: no binding

Does GACGGCATCCCTAA (ssDNA) [14 nt FAM ssDNA] bind [10]?
Result: binds

Which results are given for AGAAGAGCCAAAAC (ssDNA) [14 nt ssDNA (SEC)]?
binding result [11]: binds; binding result [12]: no binding

B3: Timeless (Tim, residues 1-1134) (domain or fragment, mouse, UniProt Q9R1X4 1-1134, looked up)
chain: T1 sequence 1
notes: Timeless (Tim), mouse, AB019001, aa 1-1134; The Tim chain of m1, written alone for the pair Tim with Tipin; also called mTim; His-Tim; source: E. coli BL21 (DE3) gold with pRARE, co-expressed with Tipin, co-purified
Which “stoichiometry N” value [13] does the source give for B3 here?
The value was 1.
